Data as given in publication PMC10530651, “Mechanisms of Regulation of the CHRDL1 Gene by the TWIST2 and ADD1/SREBP1c Transcription Factors”.

What was measured:
TWIST2 Q119X [1] = target: T1, TWIST2 Q119X (Homo sapiens, UniProt Q8WVJ9 1-118); assay: EMSA; EMSA: 20 mM HEPES pH 7.9, 60 mM KCl, 1 mM MgCl2, 0.5 mM DTT, 10% glycerol, 10 µL with 1-3 µL TnT lysate; competitor at least 50x molar excess; 6% native gel, 0.5X TBE, 4 °C; binding temperature not stated; details: protein: ivt; tags: Myc; chain copies: 2; label: 32P as probe; blunt
T1 sequence: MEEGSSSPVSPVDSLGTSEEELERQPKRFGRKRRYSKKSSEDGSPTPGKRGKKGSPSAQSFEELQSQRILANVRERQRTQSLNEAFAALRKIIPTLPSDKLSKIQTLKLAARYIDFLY

TWIST2 Q119X [2] = target: T1, TWIST2 Q119X; assay: EMSA; homodimer; EMSA: 20 mM HEPES pH 7.9, 60 mM KCl, 1 mM MgCl2, 0.5 mM DTT, 10% glycerol, 10 µL with 1-3 µL TnT lysate; competitor at least 50x molar excess; 6% native gel, 0.5X TBE, 4 °C; binding temperature not stated; details: protein: ivt; tags: Myc; chain copies: 2; label: 32P as probe; blunt

B1: CH2600TWI (dsDNA)
DNA 1: TATATACACAGGCAAATGAGTGCATATAAA
DNA 2: TTTATATGCACTCATTTGCCTGTGTATATA
- binding result (TWIST2 Q119X [1]): no binding

B2: CH2700EA (dsDNA)
DNA 1: TGGTGGTGGTCACATGAATATACACATGCGATAAAATT
DNA 2: AATTTTATCGCATGTGTATATTCATGTGACCACCACCA
- binding result (TWIST2 Q119X [2]): no binding
